Test results from article PMC5499601 (Nucleic Acids Research, 2017).
Where a chain is given by its changes, count along the chain named. Where two headings read alike, the source gives them in different places.

Columns and labels:
Assay in all cases: EMSA
[1] = target: T1, BsSpo0J WT (UniProt P26497 1-282)
T1 sequence: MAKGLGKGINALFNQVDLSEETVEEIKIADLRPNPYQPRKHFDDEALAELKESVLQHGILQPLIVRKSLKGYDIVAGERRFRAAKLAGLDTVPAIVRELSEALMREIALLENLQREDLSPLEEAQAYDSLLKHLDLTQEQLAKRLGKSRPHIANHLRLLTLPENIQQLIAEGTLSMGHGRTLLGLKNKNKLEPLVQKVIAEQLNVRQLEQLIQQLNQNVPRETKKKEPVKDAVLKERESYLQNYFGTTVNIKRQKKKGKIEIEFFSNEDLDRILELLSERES

[2] = target: T2, BsSpo0J Q61R (UniProt P26497 1-282, Q61R)
T2 sequence: T1 sequence with Q61R

[3] = target: T3, BsSpo0J R82A (UniProt P26497 1-282, R82A)
T3 sequence: T1 sequence with R82A

[4] = target: T4, BsSpo0J R105E (UniProt P26497 1-282, R105E)
T4 sequence: T1 sequence with R105E

[5] = target: T5, BsSpo0J L60E (UniProt P26497 1-282, L60E)
T5 sequence: T1 sequence with L60E

[6] = target: T6, BsSpo0J N112S (UniProt P26497 1-282, N112S)
T6 sequence: T1 sequence with N112S

[7] = target: T1, BsSpo0J WT; remark: listed apart in the source
[8] = target: T7, BsSpo0J Q140A (UniProt P26497 1-282, Q140A)
T7 sequence: T1 sequence with Q140A

Measured: binding result

B1: 24-bp parS (dsDNA)
DNA 1: AGAATGTTCCACGTGAAACAAAGA
DNA 2: TCTTTGTTTCACGTGGAACATTCT
binds: [1]

B2: 39-bp parS (dsDNA)
DNA 1: CAGTTGAATCAGAATGTTCCACGTGAAACAAAGAAAAAA
DNA 2: TTTTTTCTTTGTTTCACGTGGAACATTCTGATTCAACTG
not listed: [1]
binds: all other assays above
